# Laboratory results taken from publication PMC8546028.
# Values joined by “and” are separate entries in the source; they are usually repeats but may differ in a detail not shown here. Identical values can stand only once.
# Experiments:
# [1] = biological target: SM2-ΔC24 (deletion of 24 amino acids from C-terminus of SM2) (Synechococcus sp. phage S-ShM2); experiment: SEC-MALS; Superose-6 10/300 GL, room temperature (25 °C), 1 mg/ml (100 μl) injected, flow 0.2 ml/min; protein kept in 20 mM Tris, 200 mM NaCl, pH 8.0; self-association
# [2] = biological target: SM2-ΔN14 (deletion of 14 amino acids from N-terminus of SM2) (Synechococcus sp. phage S-ShM2); experiment: crystal structure; SM2-ΔN14 at 12 mg/ml, 0.2 M lithium sulphate monohydrate, 0.1 M Tris pH 8.5, 25% PEG 3350; space group I4, 7 Å, 3 dimers in the asymmetric unit; molecular replacement with the AgsA dimer (PDB 4ZJA)
# [3] = biological target: SM2-ΔN14 (deletion of 14 amino acids from N-terminus of SM2) (Synechococcus sp. phage S-ShM2); experiment: SEC-MALS; Superose-6 10/300 GL, room temperature (25 °C), 1 mg/ml (100 μl) injected, flow 0.2 ml/min; protein kept in 20 mM Tris, 200 mM NaCl, pH 8.0; self-association
# [4] = biological target: SM2-ΔN40ΔC24 (deletion of 40 amino acids from N-terminus and 24 amino acids from C-terminus of SM2) (Synechococcus sp. phage S-ShM2); experiment: as above
# [5] = biological target: full length SM2 Tagged (SM2-FL), small heat shock protein HspSP-ShM2 of Synechococcus sp. phage S-ShM2 (Synechococcus sp. phage S-ShM2); experiment: as above
# [6] = biological target: full length SM2 Tagged (SM2-FL), small heat shock protein HspSP-ShM2 of Synechococcus sp. phage S-ShM2 (Synechococcus sp. phage S-ShM2); experiment: cryo-EM structure; SM2-FL at 3 mg/ml on Quantifoil R2/1 grids, Talos Arctica 200 kV; one sample sorted into a large dataset (about 90%, 8 Å) and a small dataset (about 10%, 7.7 Å); the dimer of the crystal structure fitted to the maps
substance,measurement,setting,value
SM2-ΔC24 (deletion of 24 amino acids from C-terminus of SM2) (domain or fragment),stoichiometry N,[1],2
SM2-ΔN14 (deletion of 14 amino acids from N-terminus of SM2) (domain or fragment),stoichiometry N,[2],24
same,stoichiometry N,[3],24
SM2-ΔN40ΔC24 (deletion of 40 amino acids from N-terminus and 24 amino acids from C-terminus of SM2) (domain or fragment),stoichiometry N,[4],2
"full length SM2 Tagged (SM2-FL), small heat shock protein HspSP-ShM2 of Synechococcus sp. phage S-ShM2 (natural protein)",stoichiometry N,[5],> 40
same,stoichiometry N,[6],60 and 48
